The source of these data is patent US20210338833A1 (MIT, published 2021).

T1: FMC63 Mimotope (E6) RLCPWSCVPI
T1 peptide: RLCPWSCVPI

T2: FMC63 Mimotope (H11) RICPWSCREL
T2 peptide: RICPWSCREL

T3: FMC63 Mimotope (F8) RLCPWDCREL
T3 peptide: RLCPWDCREL

T4: FMC63 Mimotope (G9) RLCPWSCREL
T4 construct: Parent of the alanine scan
T4 peptide: RLCPWSCREL

T5: FMC63 Mimotope (F12) RICPWNCKEL
T5 construct: also called F12 mimotope
T5 peptide: RICPWNCKEL

T6: FMC63 Mimotope (H1) RVCPWSCMPI
T6 construct: Not the 1D3 mimotope that is also called H1
T6 peptide: RVCPWSCMPI

T7: FMC63 Mimotope (C7) RLCPWACQEQ
T7 peptide: RLCPWACQEQ

T8: FMC63 Mimotope (C5) RMCPWSCYEL
T8 peptide: RMCPWSCYEL

T9: FMC63 Mimotope (A12) RRCPWSCKKQ
T9 peptide: RRCPWSCKKQ

T10: FMC63 Mimotope (H8) RICPWACVEL
T10 peptide: RICPWACVEL

T11: FMC63 Mimotope (G11) RLCPWNCREL
T11 peptide: RLCPWNCREL

T12: FMC63 mimotope K-A5 PLSRICPWNCKELYWLPQR
T12 peptide: PLSRICPWNCKELYWLPQR

T13: FMC63 mimotope K-C2 RICPWNCKELPSPPRIFGNR
T13 peptide: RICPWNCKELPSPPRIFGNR

T14: FMC63 mimotope K-B5 PPPRICPWNCKELPLDWPW
T14 peptide: PPPRICPWNCKELPLDWPW

T15: FMC63 mimotope K-A11 RICPWNCKELYWLPDE
T15 peptide: RICPWNCKELYWLPDE

T16: FMC63 mimotope K-F5 QFQRICPWNCKELYWLPDQ
T16 peptide: QFQRICPWNCKELYWLPDQ

T17: FMC63 mimotope K-A1 PRKHSGRICPWNCKELDNPPFIFGNR (not fully specified)
T17 peptide: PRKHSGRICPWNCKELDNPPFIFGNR

T18: FMC63 mimotope K-D11 AGTRICPWNCKELYWLPDE
T18 peptide: AGTRICPWNCKELYWLPDE

T19: FMC63 mimotope K-A10 AKRRERDYVGRICPWNCKELHPDTRHRIPV
T19 peptide: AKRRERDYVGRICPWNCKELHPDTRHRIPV

T20: FMC63 mimotope K-A3 RICPWNCKELPTPYMMFDM
T20 peptide: RICPWNCKELPTPYMMFDM

B1: FMC63 Mimotope Mutant RLCPWSAACREL (peptide)
peptide: RLCPWSAACREL
notes: also called G9 with two alanines inserted between the cysteines
B2: biotinylated F12 derivative GGGSASRICPWNCKEL (peptide)
peptide: Biotin-GGGSASRICPWNCKEL
modifications: not fully specified (bridges); cysteine pairing not given here
notes: Free peptide loaded on a streptavidin coated plate for ELISA
B3: 1D3 Mimotope Multimer H1 + E2 SKLKGKSGPEIRVLMSRVFA (peptide)
peptide: SKLKGKSGPEIRVLMSRVFA
notes: Chemically synthesized 20 amino acid fusion of two mimotopes; also called fusion mimotope
B4: biotinylated F12 derivative GGSGGGGSASRICPWNCKEL (peptide)
peptide: Biotin-GGSGGGGSASRICPWNCKEL
modifications: not fully specified (bridges); cysteine pairing not given here
notes: as for B2
B5: biotinylated F12 derivative GSGGGGSGGGGSASRICPWNCKEL (peptide)
peptide: Biotin-GSGGGGSGGGGSASRICPWNCKEL
modifications: not fully specified (bridges); cysteine pairing not given here
notes: as for B2
B6: 1D3 Mimotope Multimer H1 + C11 SKLKGKSGPEFHWFINVPPF (peptide)
peptide: SKLKGKSGPEFHWFINVPPF
notes: as for B3
B7: anti-mCD19 (clone 1D3) IgG (antibody, V domains shown)
VH: EVQLQQSGAELVRPGTSVKLSCKVSGDTITFYYMHFVKQRPGQGLEWIGRIDPEDESTKYSEKFKNKATLTADTSSNTAYLKLSSLTSEDTATYFCIYGGYYFDYWGQGVMVTVSS
VL: DIQMTQSPASLSTSLGETVTIQCQASEDIYSGLAWYQQKPGKSPQLLIYGASDLQDGVPSRFSGSGSGTQYSLKITSMQTEDEGVYFCQQGLTYPRTFGGGTKLELK
notes: Anti-mouse CD19 IgG; biotinylated for sorting; also called 1D3 antibody; anti-mCD19 IgG
B8: FMC63 scFv (scFv)
scFv: DIQMTQTTSSLSASLGDRVTISCRASQDISKYLNWYQQKPDGTVKLLIYHTSRLHSGVPSRFSGSGSGTDYSLTISNLEQEDIATYFCQQGNTLPYTFGGGTKLEITGGGGSGGGGSGGGGSEVKLQESGPGLVAPSQSLSVTCTVSGVSLPDYGVSWIRQPPRKGLEWLGVIWGSETTYYNSALKSRLTIIKDNSKSQVFLKMNSLQTDDTAIYYCAKHYYYGGSYAMDYWGQGTSVTVSS
modifications: biotinylated
notes: Whole scFv entry (VL-(G4S)3-VH); also called FMC63-scFv monomer; biotinylated FMC63 scFv
B9: biotinylated F12 derivative SASRICPWNCKEL (peptide)
peptide: Biotin-SASRICPWNCKEL
modifications: not fully specified (bridges); cysteine pairing not given here
notes: as for B2
B10: biotinylated F12 derivative GGGGSGGGGSGGGGSASRICPWNCKEL (peptide)
peptide: Biotin-GGGGSGGGGSGGGGSASRICPWNCKEL
modifications: not fully specified (bridges); cysteine pairing not given here
notes: as for B2
B11: 1D3 Mimotope (H1) SKLKGKSGPE (peptide)
peptide: SKLKGKSGPE
B12: FMC63 Mimotope Mutant RLCPWSACREL (peptide)
peptide: RLCPWSACREL
notes: also called G9 with one alanine inserted between the cysteines

Ends that are not written are not given here. * marks the point of attachment. Biotin = O=C1N[C@H]2[C@H](CS[C@H]2CCCCC(=O)*)N1

Test [1] addresses B7. Put plainly: yeast display selection with 1D3 IgG. The procedure: (§1) Specifically, a library was generated using nested PCR and the primers in Table 1. […] For each round of enrichment, the top 0.5-1% of yeast were sorted. Following enrichment, isolated clones were subjected to Sanger sequencing. […] To further characterize the mimotope affinity, absolute binding affinity was measured by ELISA. Specifically, three mimotopes were selected for screening (Table 8). Of the selected sequences, two fusion mimotopes were chemically synthesized. Specifically, two mimotopes were fused to form a 20 amino acid peptide (Table 9).

Test [2] has as its target T21, FMC63 IgG.
T21 construct: Murine monoclonal antibody to human CD19; also called FMC63 IgG antibody; biotinylated FMC63 IgG
Put plainly: flow cytometry of yeast-displayed mutant. The procedure:
Specifically, a representative mimotope, […] […] To generate mutations, two complementary oligos with the codon replaced at the desired site were denatured at 95° C. and annealed by slow cooling to 25° C. (decreasing by 0.5° C./second). The annealed oligos were treated with T4 PNK (T4 Polynucleotide Kinase) to add a terminal phosphate, and then ligated into digested pCT-CON2 vector. Positive clones having the correct oligo inserted were tested and transformed into competent EBY100 yeast cells.

For test [3], the target named is T21, FMC63 IgG. The test is described as follows: ELISA, N-terminally biotinylated peptide on streptavidin plate, FMC63 IgG.
Test [4] concerns the target B7. Put plainly: ELISA with anti-mCD19 IgG (1D3). The procedure:
as §1

In test [5] the target is B11. The test is described as follows: ELISA, OD(450nm) against the concentration of 1D3 IgG; label under the circle curve (H1).
Test [6] concerns the target B3. Put plainly: ELISA, OD(450nm) against the concentration of 1D3 IgG; label beside the triangle curve (H1 + E2). On the procedure:
as §1

Test [7] has as its target B6. Put plainly: ELISA, OD(450nm) against the concentration of 1D3 IgG; label beside the square curve (H1 + C11). On the procedure: as §1
Test [8] concerns the target T1, FMC63 Mimotope (E6) RLCPWSCVPI
Put plainly: flow cytometry of yeast clones titrated with biotinylated FMC63 scFv monomer, MFI (geometric mean); axis without unit, nM by the legend paragraph 211.

The target in test [9] is T2, FMC63 Mimotope (H11) RICPWSCREL
The test is described as above.

In test [10] the target is T3, FMC63 Mimotope (F8) RLCPWDCREL
The description is as above.

Test [11] has as its target T4, FMC63 Mimotope (G9) RLCPWSCREL
The test is described as above.

For test [12], the target named is T5, FMC63 Mimotope (F12) RICPWNCKEL
The test is described as above.

The target in test [13] is T6, FMC63 Mimotope (H1) RVCPWSCMPI
The test is described as above.

The target in test [14] is T7, FMC63 Mimotope (C7) RLCPWACQEQ
The description is as above.

Test [15] deals with T8, FMC63 Mimotope (C5) RMCPWSCYEL
Described as above.

In test [16] the target is T9, FMC63 Mimotope (A12) RRCPWSCKKQ
Described as above.

Test [17] has as its target T10, FMC63 Mimotope (H8) RICPWACVEL
The description is as above.

For test [18], the target named is T11, FMC63 Mimotope (G11) RLCPWNCREL
The test is described as above.

Test [19] addresses T12, FMC63 mimotope K-A5 PLSRICPWNCKELYWLPQR
The test is described as follows: flow cytometry of yeast clones titrated with biotinylated FMC63 scFv and streptavidin-PE, MFI (geometric mean); no unit on the concentration axis.

Test [20] has as its target T13, FMC63 mimotope K-C2 RICPWNCKELPSPPRIFGNR
Described as above.

In test [21] the target is T14, FMC63 mimotope K-B5 PPPRICPWNCKELPLDWPW
Described as above.

For test [22], the target named is T15, FMC63 mimotope K-A11 RICPWNCKELYWLPDE
The test is described as above.

Test [23] has as its target T16, FMC63 mimotope K-F5 QFQRICPWNCKELYWLPDQ
The description is as above.

In test [24] the target is T17, FMC63 mimotope K-A1 …. The description is as above.
Test [25] addresses T18, FMC63 mimotope K-D11 AGTRICPWNCKELYWLPDE
Described as above.

Test [26] has as its target T19, FMC63 mimotope K-A10 …. Described as above.
Test [27] concerns the target T20, FMC63 mimotope K-A3 RICPWNCKELPTPYMMFDM
Described as above.

For the molecule IRVLMSRVFA [1D3 Mimotope (E2) IRVLMSRVFA], the binding result in test [1] is listed as “binds”.
Take B1: in the test with FMC63 IgG [2], the binding result was “no binding (tested: 5 µM FMC63 IgG)”.
Turning to FHWFINVPPF [1D3 Mimotope (C11) FHWFINVPPF], in test [1], the binding result is listed as “binds”.
Turning to B2, in the test with FMC63 IgG [3], the dissociation constant (Kd) was 0.141 nM.
Consider B3, for which the binding result in test [4] is “binds”.
B4 returned a Kd with FMC63 IgG [3] of 0.139 nM.
The same measure, in the same setting: under B5 stands 0.134 nM.
In the case of B6, in test [4], the binding result is “binds”.
Take B7: the figures for the Kd in test [5], in [6] and in [7] were 190 nM, 6.7 nM and 102 nM, respectively.
In the case of B8, the binding result in [8], in test [9], in test [10], in test [11], in test [12] and in test [13] was “binds” in each case. In addition, the binding result in test [14], in test [15], in test [16], in [17], in test [18] and in test [19] was “binds” each time. The binding result in test [20], in [21], in test [22], in test [23], in [24] and in [25] was “binds” each time. Moreover, the binding result in test [26] and in test [27] was “binds” in each case.
Molecule B9 came in with a Kd with FMC63 IgG [3] of 0.147 nM.
The same measure, in the same setting: the same measure for B10: 0.153 nM.
On to B11, for which the binding result in test [1] is listed as “binds”.
On to B12, for which the binding result with FMC63 IgG [2] is given as “no binding (tested: 5 µM FMC63 IgG)”.
